Test results: publication PMC5454392, “Selective BET bromodomain inhibition as an antifungal therapeutic strategy” (Nature Communications, 2017)
Square brackets hold non-standard residues; d marks the D form. Ends that are not written are not given here. Arg(Me2a) = CN(C)C(=N)NCCC[C@H](N)C(=O)O; Lys(Me3) = C[N+](C)(C)CCCC[C@H](N)C(=O)O; Arg(Me2s) = CN=C(NC)NCCC[C@H](N)C(=O)O; pT = C[C@@H](OP(=O)(O)O)[C@H](N)C(=O)O; Lys(Me2) = CN(C)CCCC[C@H](N)C(=O)O; pS = N[C@@H](COP(=O)(O)O)C(=O)O; Lys(Me) = CNCCCC[C@H](N)C(=O)O; Me2a = not defined here; me2a = not defined here

T1: CaBdf1 BD1 (GST-tagged, wild-type) (Candida albicans (strain SC5314 / ATCC …, UniProt Q5A4W8))
T1 chain: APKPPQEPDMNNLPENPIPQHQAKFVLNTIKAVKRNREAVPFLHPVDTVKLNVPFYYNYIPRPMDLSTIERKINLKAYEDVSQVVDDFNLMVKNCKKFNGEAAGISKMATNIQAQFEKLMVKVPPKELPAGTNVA

T2: CaBdf1 BD2 (GST-tagged, wild-type) (Candida albicans (strain SC5314 / ATCC …, UniProt Q5A4W8))
T2 chain: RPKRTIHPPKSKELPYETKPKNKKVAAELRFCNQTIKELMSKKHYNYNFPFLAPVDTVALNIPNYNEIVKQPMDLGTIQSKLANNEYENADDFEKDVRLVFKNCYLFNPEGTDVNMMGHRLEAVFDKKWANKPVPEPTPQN


What was measured:
[1] = target: T1, CaBdf1 BD1 (GST-tagged, wild-type); test: histone peptide array (Active Motif MODified), 1 uM GST-tagged bromodomain, anti-GST detection, normalized mean intensity
[2] = target: T2, CaBdf1 BD2 (GST-tagged, wild-type); test: as above

Row | Binder | binding score [1] | binding score [2]
1 | ARTKQTA[Arg(Me2a)]K(Me)[pS]TGGKAPRKQ | 0.00326 | 0.00407
2 | RKSAPATGGVKKPHRYRPG (R K S A P A T G G V Kme3 K P H R Y R P G) [H3 26-45] | 0.00761 | 0.00777
3 | ARTKQTARKSTGGKAPRKQ (A Rme2a T Kme2 Q T A Rme2s Kme1 S T G G K A P R K Q) | 0.00399 | 0.0037
4 | PRKQLATKAAR(Me2s)K(Me3)[pS]APATGG | 0.00109 | 0.00629
5 | PRKQLATKAARK(Me)[pS]APATGG | 0.0029 | 0.00333
6 | ARTKQTARKSTGGKAPRKQ (A Rme2a T Kme2 Q T A Rme2s Kac S T G G K A P R K Q) | 0.0435 | 0.00333
7 | AR(me2a)TK(Ac)QTAR(me2a)K(Me)STGGKAPRKQ (reading uncertain) | 0.00761 | 0.00888
8 | ARTKQTARKSTGGKAPRKQ (A R T K Q T A Rme2s Kac S pT G G K A P R K Q) | 0.00363 | 0.00407
9 | ARTKQTARKSTGGKAPRKQ (A Rme2a T Kme1 Q T A Rme2a Kac S T G G K A P R K Q) | 0.0254 | 0.00333
10 | A[Arg(Me2a)]TKQTARKSTGGKAPRKQ | 0.000363 | 0.00296
11 | PRKQLATKAAR(Me2s)K(Me)SAPATGG | 0.00435 | 0.00296
12 | AR(Me2s)TK(Me3)QTAR(Me2a)K(Ac)STGGKAPRKQ (reading uncertain) | 0.0406 | 0.0037
13 | ARTKQTARKSTGGKAPRKQ (A R T Kac Q T A Rme2a Kme3 S T G G K A P R K Q) | 0.0087 | 0.00592
14 | ARTKQTA[Arg(Me2a)]K(Ac)[pS]TGGKAPRKQ | 0.00399 | 0.00407
15 | SGRGKQGGKARAKAKSRSS (not fully specified) | 0.0087 | 0.00259
16 | ARTKQTARKSTGGKAPRKQ (A Rme2s T Kac Q T A Rme2s Kac S T G G K A P R K Q) | 0.041 | 0.00629
17 | AR(Me2a)TK(Me3)QTARK(Me2)STGGKAPRKQ (reading uncertain) | 0.00145 | 0.00296

Row | Binder | binding score [1] | binding score [2]
18 | A[Arg(Me2a)]TK(Ac)QTARKSTGGKAPRKQ | 0.00363 | 0.00148
19 | R[Arg(Me2s)]K[Lys(Me)]K(Ac)R[Arg(Me2a)][Lys(Me2)]K[Lys(Me3)]R[Lys(Me)][Arg(Me2s)]KK(Ac)RK [background 02] | 0.00906 | 0.00444
20 | SGRGK(Ac)QGGK(Ac)ARAKAKSRSS | 0.0283 | 0.0133
21 | ARTKQTARKSTGGKAPRKQ (A R pT Kme2 Q T A R K S T G G K A P R K Q) | 0.00326 | 0.0037
22 | ARTKQTARKSTGGKAPRKQ (A R T K Q T A R K S pT G G K A P R K Q) | 0.00326 | 0.00037
23 | ARTKQTARKSTGGKAPRKQ (A Rme2s T Kme3 Q T A R K S T G G K A P R K Q) | 0.00363 | 0
24 | ARTKQTARKSTGGKAPRKQ (A R T K Q T A Rme2s Kme3 S pT G G K A P R K Q) | 0.00399 | 0.0037
25 | PRKQLATKAAR(Me2s)K(Me)[pS]APATGG | 0.00254 | 0.00259
26 | AR(Me2a)[pT]K(Me)QTARKSTGGKAPRKQ (reading uncertain) | 0.00471 | 0.00037
27 | SGRGKGGKGLGKGGAKRHR (S G R G K G G K G L G K G G A Kac R H R) | 0.0149 | 0.00296
28 | SGRGKGGKGLGKGGAKRHR (not fully specified; histone peptide post-translational modifications (acetyl, methyl, phospho, citrulline) listed in columns 4-7 and embedded in the sequence text; N-terminus free or acetylated in column 8) | 0.00725 | 0.00999
29 | ARTKQTARKSTGGKAPRKQ (A Rme2s pT Kme2 Q T A R K S T G G K A P R K Q) | 0.00363 | 0.00333
30 | [pS]GRGK(Ac)QGGKARAKAKSRSS | 0.0156 | 0.0215
31 | ARTKQTARKSTGGKAPRKQ (A Rme2a T Kac Q T A Rme2s Kme1 S T G G K A P R K Q) | 0.00471 | 0.00296
32 | ARTKQTARKSTGGKAPRKQ (A Rme2a T Kme3 Q T A Rme2s Kac S T G G K A P R K Q) | 0.0337 | 0.0037
33 | ARTKQTARKSTGGKAPRKQ (A R T Kme2 Q T A Rme2a Kme1 S T G G K A P R K Q) | 0.0363 | 0.00666
34 | ARTKQTARKSTGGKAPRKQ (A Rme2a T Kme3 Q T A Rme2a Kac S T G G K A P R K Q) | 0.0392 | 0.00999
